Reference: patent US20250257122A1 (UNITED STATES OF AMERICA AS REPRESENTED BY THE SECRETARY OF …, published 2025)
Numbering of substitutions follows the chain as printed.

T1: cotton leafroll dwarf virus (CLRDV) N-terminal readthrough domain (^NRTD), purified soluble construct (cotton leafroll dwarf virus (CLRDV), …)
T1 construct: Expressed in E. coli; Calculated MW 26.410 kDa; also called CLRDV ^NRTD; CLRDV ^NRTD (TX)
T1 chain: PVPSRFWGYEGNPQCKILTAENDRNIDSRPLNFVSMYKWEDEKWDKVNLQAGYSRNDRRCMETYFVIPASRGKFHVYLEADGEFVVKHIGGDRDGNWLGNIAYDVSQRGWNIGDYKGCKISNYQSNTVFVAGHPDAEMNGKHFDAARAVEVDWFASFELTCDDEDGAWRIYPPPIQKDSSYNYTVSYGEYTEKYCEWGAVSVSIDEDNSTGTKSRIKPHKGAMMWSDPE

B1: D12 camelid single-chain antibody (VHH)
VHH: QVQLQESGGGLVQAGDSLRLSCAASGRTFNSFAMGWFRQAPGKEREFVAAIKWNGVTTDYADSMKGRFTISRDNAKNTMYLQMNTLKPEDTAIYYCAAKPTWATTNGRPTAYDYWGQGTQVTVSS
notes: Alpaca VHH, cloned into pMES4 and expressed in E. coli; also called D12 single-chain antibody
B2: C12 camelid single-chain antibody (VHH)
VHH: B1 VHH with V12A, K65R, L81M
notes: Alpaca VHH, cloned into pMES4 and expressed in E. coli; also called C12 single-chain antibody
B3: A12 camelid single-chain antibody (VHH)
VHH: B1 VHH with V12A, K52N, T110A
notes: Alpaca VHH, cloned into pMES4 and expressed in E. coli; also called A12 single-chain antibody

Assays:
[1] = molecular target: T1, cotton leafroll dwarf virus (CLRDV) …; assay: phage display panning and screening (legend of FIG. 3)
Procedure: (§1) Isolation and screening for specific single-chain antibodies was carried out as detailed by K. M. Chow, et al. (2019, “Immunization of Alpacas (Lama pacos) with Protein Antigens and Production of Antigen-specific Single Domain Antibodies,” J. Vis. Exp. (143), e58471. doi: 10.3791/58471). Briefly, alpacas were immunized with ˜400 μg of a mixture of both TX and AL CP or ^NRTD preparations that contained 50% (v/v) of adjuvant. Five subsequent weekly boosting injections were provided using ˜200 μg of the same mixture detailed above. Three to five days after the last injection, 50 mL of blood was collected, and lymphocytes purified. A cDNA library was prepared using oligodT primers and RNA extracted from lymphocytes. A bacteriophage library was obtained from the cDNA library by cloning with restriction enzymes into the phage display vector pMES4. Expression of the insert fused to gene III of the filamentous phage was used for production of the phage solution and single-domain antibody panning. After screening, two single-chain antibodies that recognized the CRLDV CP were identified and named B6 (SEQ ID NO: 8) and E3 (SEQ ID NO: 4) and three single-chain antibodies that recognized the CRLDV ^NRTD were identified and names C12 (SEQ ID NO: 12), A12 (SEQ ID NO: 16), and D12 (SEQ ID NO: 20), respectively.

[2] = molecular target: T1, cotton leafroll dwarf virus (CLRDV) …; assay: phage display panning and screening
Procedure: as §1

| Binder | binding result [1] | binding result [2] |
| --- | --- | --- |
| B1 | binds |  |
| B2 |  | binds |
| B3 |  | binds |
